These results are taken from paper PMC7705670, “Structural and functional characterization of M. tuberculosis sedoheptulose- 7-phosphate isomerase, a critical enzyme involved in lipopolysaccharide biosynthetic pathway” (Scientific Reports, 2020).

Numbering of substitutions follows the chain as printed. Names and notes keep the numbering of the source.

Holding throughout (assay): SEC
(In gel filtration, larger molecules generally elute earlier.)

The target in series [1] is MtbGmhA Q173A mutant (M. tuberculosis) (UniProt P9WGG1).
In series [2] the target is MtbGmhA S126A mutant (M. tuberculosis) (UniProt P9WGG1).
Series [3] deals with MtbGmhA T122A mutant (M. tuberculosis) (UniProt P9WGG1).
In series [4] the target is MtbGmhA S123A mutant (M. tuberculosis) (UniProt P9WGG1).
The series “SEC” deals with the molecule itself.

One may read the stoichiometry N as a count of units in the complex or per binding partner. In turn, “MtbGmhA Q173A mutant (from UniProt P9WGG1 1-196) (enzyme)” showed a stoichiometry N in series [1] of 4.

For “MtbGmhA S126A mutant (from UniProt P9WGG1 1-196) (enzyme)”, the stoichiometry N in series [2] turned out to be 4.

Molecule “MtbGmhA T122A mutant (from UniProt P9WGG1 1-196) (enzyme)” registered a stoichiometry N in series [3] of 4.

In series [4], “MtbGmhA S123A mutant (from UniProt P9WGG1 1-196) (enzyme)” yielded a stoichiometry N of 4.

B1: MtbGmhA N53G mutant (enzyme)
chain: MCTARTAEEIFVETIAVKTRILNDRVLLEAARAIGDRLIAGYRAGARVFMCGGGGSAADAQHFAAELTGHLIFDRPPLGAEALHANSSHLTAVANDYDYDTVFARALEGSARPGDTLFAISTSGNSMSVLRAAKTARELGVTVVAMTGESGGQLAEFADFLINVPSRDTGRIQESHIVFIHAISEHVEHALFAPRQ
notes: not shown: His6, N-terminal, kept
Regarding B1, the “stoichiometry N” value in “SEC” was determined as 4.

B2: MtbGmhA S121G mutant (enzyme)
chain: B1 chain with G53N, S121G
notes: as for B1
With B2, the “stoichiometry N” value in “SEC” was found to be 4.
